Experimental data taken from patent US20200317768A1 (published 2020).
Numbering of substitutions follows the chain as printed. Numbers in names are those of the source. Each block holds one binder with its values, some of them ahead of it.

How the values were obtained:
[1] = target: T1, human FcγRIIb extracellular domain, C-terminal His-tag (human, UniProt P31994 43-217); experiment: SPR (BIACORE) 25C, antibody captured, FcgR as analyte
T1 construct: also called FcgRIIb (human)
T1 sequence: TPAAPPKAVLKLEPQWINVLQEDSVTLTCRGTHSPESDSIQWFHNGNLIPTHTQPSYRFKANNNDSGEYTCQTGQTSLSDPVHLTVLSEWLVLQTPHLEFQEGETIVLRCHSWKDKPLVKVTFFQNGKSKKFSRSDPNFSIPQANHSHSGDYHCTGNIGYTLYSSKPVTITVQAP
Experimental: (§1) The kinetic analysis of interactions between these antibodies and FcγR was carried out using BIACORE® T200 or BIACORE® 4000 (GE Healthcare). HBS-EP+ (GE Healthcare) was used as the running buffer, and the measurement temperature was set to 25° C. A chip produced by immobilizing Protein A. Protein A/G or mouse anti-human IgG kappa light chain (BD Biosciences) onto a Series S Sensor Chip CM4 or CM5 (GE Healthcare) by the amine-coupling method was used. […] After the measurement, the antibody captured on the chip was washed off by allowing reaction with 10 mM glycine-HCl, pH1.5 and 25 mM NaOH so that the chip was regenerated and used repeatedly. The sensorgrams obtained as measurement results were analyzed by the 1:1 Langmuir binding model using the BIACORE® Evaluation Software to calculate the binding rate constant ka (L/mol/s) and dissociation rate constant kd (l/s), and the dissociation constant KD (mol/L) was calculated from these values. […] Regarding such interactions, KD values were calculated using the following 1:1 binding model described in BIACORE® T100 Software Handbook BR1006-48 Edition AE.

[2] = target: T2, cynomolgus monkey FcγRIIa3 extracellular domain, C-terminal His-tag (cynomolgus monkey); experiment: as above
T2 construct: also called cyno FcγRIIa3; FcgRIIa3
T2 chain: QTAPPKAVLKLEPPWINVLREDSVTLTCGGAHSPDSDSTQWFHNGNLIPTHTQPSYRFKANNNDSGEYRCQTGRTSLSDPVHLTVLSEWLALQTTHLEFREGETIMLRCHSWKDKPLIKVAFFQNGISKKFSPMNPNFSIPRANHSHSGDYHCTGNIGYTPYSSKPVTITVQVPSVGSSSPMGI
Experimental: as §1

[3] = target: T3, cynomolgus monkey FcγRIIa2 extracellular domain, C-terminal His-tag (cynomolgus monkey); experiment: as above
T3 construct: also called cyno FcγRIIa2; FcgRIIa2
T3 chain: T2 chain with I127K, K130N, P133H, R142Q
Experimental: as §1

[4] = target: T4, cynomolgus monkey FcγRIIa1 extracellular domain, C-terminal His-tag (cynomolgus monkey); experiment: as above
T4 construct: also called cyno FcγRIIa1; FcgRIIa1
T4 chain: T2 chain with T95P, A121T, S128A, P133H, N135D
Experimental: as §1

[5] = target: T5, human FcγRIIaR extracellular domain, C-terminal His-tag (human, UniProt P12318 34-217); experiment: as above
T5 construct: also called human FcγRIIa (type R); FcgRIIaR
T5 chain: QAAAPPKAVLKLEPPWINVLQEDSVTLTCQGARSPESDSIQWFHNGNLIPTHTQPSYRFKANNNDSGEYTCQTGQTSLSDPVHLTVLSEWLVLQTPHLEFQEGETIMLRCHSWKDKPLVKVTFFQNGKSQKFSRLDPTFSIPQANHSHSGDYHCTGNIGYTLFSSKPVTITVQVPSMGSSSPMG
Experimental: as §1

[6] = target: T6, cynomolgus monkey FcγRIIb extracellular domain, C-terminal His-tag (cynomolgus monkey); experiment: as above
T6 construct: also called cyno FcγRIIb; cynoFcγRIIb
T6 chain: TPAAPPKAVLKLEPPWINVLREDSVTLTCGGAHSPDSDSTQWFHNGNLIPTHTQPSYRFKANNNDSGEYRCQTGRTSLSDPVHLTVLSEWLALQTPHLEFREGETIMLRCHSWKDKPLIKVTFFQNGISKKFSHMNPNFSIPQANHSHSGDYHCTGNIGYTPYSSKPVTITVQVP
Experimental: as §1

[7] = target: T7, cynomolgus monkey FcγRIIIaS extracellular domain, C-terminal His-tag (cynomolgus monkey, UniProt Q8SPW2 21-206 at identity 1.00)); experiment: SPR; KD of SG1 / KD of variant;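 also: relative to parent M103205H795-SG1 carrying the SG1 human heavy chain constant region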
T7 construct: also called cyno FcγRIIIaS; FcgRIIIaS
T7 chain: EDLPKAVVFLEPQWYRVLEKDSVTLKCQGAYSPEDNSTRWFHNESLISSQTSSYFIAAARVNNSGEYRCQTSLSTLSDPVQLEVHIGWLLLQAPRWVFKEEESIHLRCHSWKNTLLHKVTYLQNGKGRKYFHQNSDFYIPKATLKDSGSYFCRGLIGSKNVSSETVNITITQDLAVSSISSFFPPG
Experimental: as §1

Kd [1]: 4.7 µM
Kd [2]: 15 µM
Kd [3]: 5.2 µM
Kd [4]: 4.2 µM
Kd [5]: 1.4 µM
Kd [6]: 1.7 µM
KD fold (SG1 = 1) [7]: 1 fold
B1: MS_M103205H795-SG1/M103202L889-SK1 (antibody, human IgG1, kappa)
heavy: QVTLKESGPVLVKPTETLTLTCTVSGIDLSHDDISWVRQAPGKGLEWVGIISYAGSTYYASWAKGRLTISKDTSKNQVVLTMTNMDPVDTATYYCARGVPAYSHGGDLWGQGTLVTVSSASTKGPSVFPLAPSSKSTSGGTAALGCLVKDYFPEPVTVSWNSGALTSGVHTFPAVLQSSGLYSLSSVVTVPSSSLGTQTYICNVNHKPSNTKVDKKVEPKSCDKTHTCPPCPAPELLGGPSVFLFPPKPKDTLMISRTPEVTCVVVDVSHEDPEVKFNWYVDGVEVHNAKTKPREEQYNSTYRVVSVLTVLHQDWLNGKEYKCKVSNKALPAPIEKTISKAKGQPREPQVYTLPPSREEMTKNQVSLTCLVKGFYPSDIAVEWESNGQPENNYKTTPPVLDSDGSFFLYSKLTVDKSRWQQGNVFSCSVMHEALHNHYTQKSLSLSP
light: DIVMTQSPATLSLSPGERATLSCTSSQSVYHANWLSWFQQKPGQPPKLLIYWASTLAYGVPSRFSGSGSGTDFTLTISSLQPEDAATYYCAGGYGGGRYAFGQGTKVEIKRTVAAPSVFIFPPSDEQLKSGTASVVCLLNNFYPREAKVQWKVDNALQSGNSQESVTEQDSKDSTYSLSSTLTLSKADYEKHKVYACEVTHQGLSSPVTKSFNRGEC
notes: also called MS1032LO06-SG1

Kd [1]: 1.4 µM
Kd [2]: 31 µM
Kd [3]: 26 µM
Kd [4]: 25 µM
Kd [5]: 20 µM
Kd [6]: 4.9 µM
KD fold (SG1 = 1) [7]: 0.004 fold
B2: M103205H795-MY009/M103202L889-SK1 (antibody, human IgG1, kappa)
heavy: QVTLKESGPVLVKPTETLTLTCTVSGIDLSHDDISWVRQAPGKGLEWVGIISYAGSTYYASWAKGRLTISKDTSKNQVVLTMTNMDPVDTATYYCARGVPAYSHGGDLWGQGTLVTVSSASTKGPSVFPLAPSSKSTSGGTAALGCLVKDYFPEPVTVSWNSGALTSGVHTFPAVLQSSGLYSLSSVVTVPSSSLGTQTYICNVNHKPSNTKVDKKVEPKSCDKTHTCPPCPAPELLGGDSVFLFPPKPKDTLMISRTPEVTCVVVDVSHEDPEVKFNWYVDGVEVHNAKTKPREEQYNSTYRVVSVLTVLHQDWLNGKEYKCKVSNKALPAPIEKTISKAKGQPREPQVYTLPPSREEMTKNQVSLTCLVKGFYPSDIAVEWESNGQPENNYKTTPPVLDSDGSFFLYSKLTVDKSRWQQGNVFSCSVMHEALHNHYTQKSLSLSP
light: B1 light
notes: CH MY009 = SG1 with P238D (EU numbering); also called MS1032LO06-MY009
